The text below walks through data of article PMC8298264, “Function of cofactor Akirin2 in the regulation of gene expression in model human neutrophil-like HL60 cells” (Bioscience Reports, 2021).

The chains are these.
B1: sp¦P49588¦SYAC_HUMAN (protein, UniProt P49588 1-968, looked up)
Alanine--tRNA ligase, …: MDSTLTASEIRQRFIDFFKRNEHTYVHSSATIPLDDPTLLFANAGMNQFKPIFLNTIDPSHPMAKLSRAANTQKCIRAGGKHNDLDDVGKDVYHHTFFEMLGSWSFGDYFKELACKMALELLTQEFGIPIERLYVTYFGGDEAAGLEADLECKQIWQNLGLDDTKILPGNMKDNFWEMGDTGPCGPCSEIHYDRIGGRDAAHLVNQDDPNVLEIWNLVFIQYNREADGILKPLPKKSIDTGMGLERLVSVLQNKMSNYDTDLFVPYFEAIQKGTGARPYTGKVGAEDADGIDMAYRVLADHARTITVALADGGRPDNTGRGYVLRRILRRAVRYAHEKLNASRGFFATLVDVVVQSLGDAFPELKKDPDMVKDIINEEEVQFLKTLSRGRRILDRKIQSLGDSKTIPGDTAWLLYDTYGFPVDLTGLIAEEKGLVVDMDGFEEERKLAQLKSQGKGAGGEDLIMLDIYAIEELRARGLEVTDDSPKYNYHLDSSGSYVFENTVATVMALRREKMFVEEVSTGQECGVVLDKTCFYAEQGGQIYDEGYLVKVDDSSEDKTEFTVKNAQVRGGYVLHIGTIYGDLKVGDQVWLFIDEPRRRPIMSNHTATHILNFALRSVLGEADQKGSLVAPDRLRFDFTAKGAMSTQQIKKAEEIANEMIEAAKAVYTQDCPLAAAKAIQGLRAVFDETYPDPVRVVSIGVPVSELLDDPSGPAGSLTSVEFCGGTHLRNSSHAGAFVIVTEEAIAKGIRRIVAVTGAEAQKALRKAESLKKCLSVMEAKVKAQTAPNKDVQREIADLGEALATAVIPQWQKDELRETLKSLKKVMDDLDRASKADVQKRVLEKTKQFIDSNPNQPLVILEMESGASAKALNEALKLFKMHSPQTSAMLFTVDNEAGKITCLCQVPQNAANRGLKASEWVQQVSGLMDGKGGGKDVSAQATGKNVGCLQEALQLATSFAQLRLGDVKN
B2: sp¦O00567¦NOP56_HUMAN (protein, UniProt O00567 1-594, looked up)
Nucleolar protein 56: MVLLHVLFEHAVGYALLALKEVEEISLLQPQVEESVLNLGKFHSIVRLVAFCPFASSQVALENANAVSEGVVHEDLRLLLETHLPSKKKKVLLGVGDPKIGAAIQEELGYNCQTGGVIAEILRGVRLHFHNLVKGLTDLSACKAQLGLGHSYSRAKVKFNVNRVDNMIIQSISLLDQLDKDINTFSMRVREWYGYHFPELVKIINDNATYCRLAQFIGNRRELNEDKLEKLEELTMDGAKAKAILDASRSSMGMDISAIDLINIESFSSRVVSLSEYRQSLHTYLRSKMSQVAPSLSALIGEAVGARLIAHAGSLTNLAKYPASTVQILGAEKALFRALKTRGNTPKYGLIFHSTFIGRAAAKNKGRISRYLANKCSIASRIDCFSEVPTSVFGEKLREQVEERLSFYETGEIPRKNLDVMKEAMVQAEEAAAEITRKLEKQEKKRLKKEKKRLAALALASSENSSSTPEECEEMSEKPKKKKKQKPQEVPQENGMEDPSISFSKPKKKKSFSKEELMSSDLEETAGSTSIPKRKKSTPKEETVNDPEEAGHRSGSKKKRKFSKEEPVSSGPEEAVGKSSSKKKKKFHKASQED
B3: sp¦P08559¦ODPA_HUMAN (protein, UniProt P08559 30-390, looked up)
Pyruvate dehydrogenase E1 …: FANDATFEIKKCDLHRLEEGPPVTTVLTREDGLKYYRMMQTVRRMELKADQLYKQKIIRGFCHLCDGQEACCVGLEAGINPTDHLITAYRAHGFTFTRGLSVREILAELTGRKGGCAKGKGGSMHMYAKNFYGGNGIVGAQVPLGAGIALACKYNGKDEVCLTLYGDGAANQGQIFEAYNMAALWKLPCIFICENNRYGMGTSVERAAASTDYYKRGDFIPGLRVDGMDILCVREATRFAAAYCRSGKGPILMELQTYRYHGHSMSDPGVSYRTREEIQEVRSKSDPIMLLKDRMVNSNLASVEELKEIDVEVRKEIEDAAQFATADPEPPLEELGYHIYSSDPPFEVRGANQWIKFKSVS
B4: sp¦Q9UJZ1¦STML2_HUMAN (protein, UniProt Q9UJZ1 29-356, looked up)
Stomatin-like protein 2, …: SSGLPRNTVVLFVPQQEAWVVERMGRFHRILEPGLNILIPVLDRIRYVQSLKEIVINVPEQSAVTLDNVTLQIDGVLYLRIMDPYKASYGVEDPEYAVTQLAQTTMRSELGKLSLDKVFRERESLNASIVDAINQAADCWGIRCLRYEIKDIHVPPRVKESMQMQVEAERRKRATVLESEGTRESAINVAEGKKQAQILASEAEKAEQINQAAGEASAVLAKAKAKAEAIRILAAALTQHNGDAAASLTVAEQYVSAFSKLAKDSNTILLPSNPGDVTSMVAQAMGVYGALTKAPVPGTPDSLSSGSSRDVQGTDASLDEELDRVKMS
B5: sp¦P27824¦CALX_HUMAN (protein, UniProt P27824 21-592, looked up)
Calnexin: HDGHDDDVIDIEDDLDDVIEEVEDSKPDTTAPPSSPKVTYKAPVPTGEVYFADSFDRGTLSGWILSKAKKDDTDDEIAKYDGKWEVEEMKESKLPGDKGLVLMSRAKHHAISAKLNKPFLFDTKPLIVQYEVNFQNGIECGGAYVKLLSKTPELNLDQFHDKTPYTIMFGPDKCGEDYKLHFIFRHKNPKTGIYEEKHAKRPDADLKTYFTDKKTHLYTLILNPDNSFEILVDQSVVNSGNLLNDMTPPVNPSREIEDPEDRKPEDWDERPKIPDPEAVKPDDWDEDAPAKIPDEEATKPEGWLDDEPEYVPDPDAEKPEDWDEDMDGEWEAPQIANPRCESAPGCGVWQRPVIDNPNYKGKWKPPMIDNPSYQGIWKPRKIPNPDFFEDLEPFRMTPFSAIGLELWSMTSDIFFDNFIICADRRIVDDWANDGWGLKKAADGAAEPGVVGQMIEAAEERPWLWVVYILTVALPVFLVILFCCSGKKQTSGMEYKKTDAPQPDVKEEEEEKEEEKDKGDEEEEGEEKLEEKQKSDAEEDGGTVSQEEEDRKPKAEEDEILNRSPRNRKPRRE
B6: sp¦Q09161¦NCBP1_HUMAN (protein, UniProt Q09161 1-790, looked up)
Nuclear cap-binding protein …: MSRRRHSDENDGGQPHKRRKTSDANETEDHLESLICKVGEKSACSLESNLEGLAGVLEADLPNYKSKILRLLCTVARLLPEKLTIYTTLVGLLNARNYNFGGEFVEAMIRQLKESLKANNYNEAVYLVRFLSDLVNCHVIAAPSMVAMFENFVSVTQEEDVPQVRRDWYVYAFLSSLPWVGKELYEKKDAEMDRIFANTESYLKRRQKTHVPMLQVWTADKPHPQEEYLDCLWAQIQKLKKDRWQERHILRPYLAFDSILCEALQHNLPPFTPPPHTEDSVYPMPRVIFRMFDYTDDPEGPVMPGSHSVERFVIEENLHCIIKSHWKERKTCAAQLVSYPGKNKIPLNYHIVEVIFAELFQLPAPPHIDVMYTTLLIELCKLQPGSLPQVLAQATEMLYMRLDTMNTTCVDRFINWFSHHLSNFQFRWSWEDWSDCLSQDPESPKPKFVREVLEKCMRLSYHQRILDIVPPTFSALCPANPTCIYKYGDESSNSLPGHSVALCLAVAFKSKATNDEIFSILKDVPNPNQDDDDDEGFSFNPLKIEVFVQTLLHLAAKSFSHSFSALAKFHEVFKTLAESDEGKLHVLRVMFEVWRNHPQMIAVLVDKMIRTQIVDCAAVANWIFSSELSRDFTRLFVWEILHSTIRKMNKHVLKIQKELEEAKEKLARQHKRRSDDDDRSSDRKDGVLEEQIERLQEKVESAQSEQKNLFLVIFQRFIMILTEHLVRCETDGTSVLTPWYKNCIERLQQIFLQHHQIIQQYMVTLENLLFTAELDPHILAVFQQFCALQA
B7: sp¦P84103¦SRSF3_HUMAN (protein, UniProt P84103 1-164, looked up)
Serine/arginine-rich splicing …: MHRDSCPLDCKVYVGNLGNNGNKTELERAFGYYGPLRSVWVARNPPGFAFVEFEDPRDAADAVRELDGRTLCGCRVRVELSNGEKRSRNRGPPPSWGRRPRDDYRRRSPPPRRRSPRRRSFSRSRSRSLSRDRRRERSLSRERNHKPSRSFSRSRSRSRSNERK

The test system of the first assay is human HL60 cells. In words: SWATH-MS proteomics, differential protein representation, akirin2 KO vs WT HL60 cells. Format: cell-based. Particulars: KO vs WT; akirin2 KO vs WT HL60 cells; sheet "Under-represented in KO". In short, it runs like this:
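Differential representation compares akirin2 KO with WT HL60 across three biological replicates, 5 µg digest each, acquired by data-independent SWATH on a 120-min gradient. Library built from combined IDA runs searched with Paragon; proteins accepted at 1% FDR, with total-area-sum normalization.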
As to B1, the “Fold Change” value amounted to 0.5997 and the “Log (Fold Change)” value is listed as -0.2221.
On the same counts, the results for B2 are 0.6041 and -0.2189.
On the same counts, the results for B3 are 0.6031 and -0.2196.
On the same counts, the results for B4 are 0.6025 and -0.22.
As to B5, the “Fold Change” value turned out to be 0.6087 and the “Log (Fold Change)” value is reported as -0.2156.

Still in this assay, the particulars now being: akirin2 KO vs WT HL60 cells; sheet "Under-represented in KO".
In the case of B6, the “Fold Change” value was 0.2701 and the “Log (Fold Change)” value is -0.5684.
On the same counts, the results for B7 are 0.2712 and -0.5667.
